Measured values published in patent publication US20120231013A1 (Amgen, published 2012).
“And” between values parts separate entries of the source, which are not always exact repeats. Identical values can stand only once.

T1: recombinant mouse TIMP-3 (mouse, UniProt P39876 24-211)
T1 construct: also called MuTIMP-3
T1 sequence (looked up): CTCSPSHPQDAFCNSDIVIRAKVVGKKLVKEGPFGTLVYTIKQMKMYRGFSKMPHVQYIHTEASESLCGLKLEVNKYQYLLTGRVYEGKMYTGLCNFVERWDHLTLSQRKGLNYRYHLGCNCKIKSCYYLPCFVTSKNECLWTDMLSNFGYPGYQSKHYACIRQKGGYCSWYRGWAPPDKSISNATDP

B1: recombinant human TIMP-3 (other, UniProt P35625 24-211, looked up)
chain: CTCSPSHPQDAFCNSDIVIRAKVVGKKLVKEGPFGTLVYTIKQMKMYRGFTKMPHVQYIHTEASESLCGLKLEVNKYQYLLTGRVYDGKMYTGLCNFVERWDQLTLSQRKGLNYRYHLGCNCKIKSCYYLPCFVTSKNECLWTDMLSNFGYPGYQSKHYACIRQKGGYCSWYRGWAPPDKSIINATDP

Legend:
[1] = biological target: T2, recombinant TIMP-3 (human or mouse; Table 2 does not say which); test: binding ELISA, Assay 1
T2 construct: The methods say 'human or mouse TIMP-3'

[2] = biological target: T2, recombinant TIMP-3 (human or mouse; …); test: binding ELISA, Assay 3
[3] = biological target: B1; test: cell-based or functional assay
[4] = biological target: T3, MMP-13 (UniProt P45452 20-471, limits assumed); test: cell-based or functional assay
[5] = biological target: B1; test: direct ELISA, coated huTIMP-3
Procedure: (§1) After incubation, the coating solution is removed and replaced with 250 microL/well of blocking buffer (1% BSA, TBS [pH 7.5], 1 mM CaCl₂) and incubated with shaking for 1 hour at room temperature. The plates are then washed three times with 200 microL/well with wash buffer 1 (TBS [pH 7.5], 1 mM CaCl₂). The LRP-1 peptides are titrated in assay buffer (0.1% BSA, TBS [pH 7.5], 1 mM CaCl₂, 0.02% Tween-20) in a separate polypropylene non-treated round-bottom 96-well plate (BD Falcon™) starting at 1 microM concentration and then diluted serially 4-fold for 8-points, with the last point buffer only. Then 100 microL/well of the diluted LRP-1 peptide titration is added to the TIMP-3 coated plate and allowed to bind for 1.5 hour at room temperature with shaking. After incubation, the plate is washed three times with 200 microL/well of wash buffer 2 (TBS [pH 7.5], 1 mM CaCl₂, 0.02% Tween-20). […] The assay plate is then washed three times with 200 microL/well with wash buffer 2. The plate is developed by adding 100 microL/well of 1:1 mixture of TMB and H₂O₂ (Pierce, Fisher Thermo Scientific, Rockford Il.), the reaction is stopped by adding 100 microL/well 2NH₂SO₄ (VWR), and read on a SpectraMax microplate reader (Molecular Devices, Sunnyvale, Calif.) at OD450 nm using SOFTmax Pro software version 3.1.2. Data is analyzed using GraphPad Prism 4.01 software. Binding of LRP-1 peptides to TIMP-3 is expressed as binding EC50.

[6] = biological target: T1, recombinant mouse TIMP-3; test: direct ELISA, coated muTIMP-3
Procedure: as §1

[7] = biological target: T2, recombinant TIMP-3 (human or mouse; …); test: AlphaScreen, biotinylated TIMP-3, Assay 1
Procedure: (§2) Peptides were also evaluated by AlphaScreen® (Amplified Luminescent Proximity Homogeneous Assay; PerkinElmer, Waltham, Mass.) a very sensitive non-radioactive homogeneous assay technology that allows the screening of a large range of biological interactions and activities, substantially according to the manufacturer's instructions. Briefly, all dilutions are made in AlphaScreen® Buffer: [40 mM HEPES pH 7.5, 100 mM NaCl, 1 mM CaCl2, 0.1% BSA, 0.05% Tween-20]. The LRP-1 peptides are titrated in a separate polypropylene 96-well plate (Falcon) starting at 4 microM concentration and then diluted serially 3-fold for 12-points, with the last point buffer only. First 2 microL/well of protein titration curve is added to white, small volume, 384-well assay plate (Greiner Bio-One, Stonehouse, UK) in duplicate. Next, 2 microL of biotinylated (AFS, in-house conjmicroGation) recombinant human or mouse TIMP-3, is added at 12 nM (or 3 nM final assay concentration) to the assay plate. Lastly, in subdued light 4 microL of a mixture of streptavidin donor beads, anti-mouse IgG acceptor beads (PerkinElmer) both diluted to 20 microG/mL (10 microG/mL final assay concentration) and 2 nM (1 nM final concentration) rat-anti-HA (clone3F10)-HRP (Roche Diagnostics) is added to the plates. Plates containing 8 microL final assay volme are covered with TopSeal A (to prevent evaporation), spun quickly at 1000 rpm, and incubated overnight (covered with foil to prevent light exposure) before reading on Fusion plate reader (PerkinElmer) using AlphaScreen® parameters (excitation 680 nm and emission 520-620 nm). Data is analyzed using GraphPad Prism 4.01 software. Binding to TIMP-3 is reported as total signal (cps).

[8] = biological target: T2, recombinant TIMP-3 (human or mouse; …); test: AlphaScreen, biotinylated TIMP-3, Assay 2
Procedure: as §2

[9] = biological target: B1; test: indirect ELISA, huTIMP-3 captured by anti-TIMP-3 clone 277128
Procedure: Then 100 microL/well of the diluted LRP-1 peptide titration is added to the TIMP-3 coated plate and allowed to bind for 1.5 hour at room temperature with shaking. After incubation, the plate is washed three times with 200 microL/well of wash buffer 2 (TBS [pH 7.5], 1 mM CaCl₂, 0.02% Tween-20). […] The assay plate is then washed three times with 200 microL/well with wash buffer 2. The plate is developed by adding 100 microL/well of 1:1 mixture of TMB and H₂O₂ (Pierce, Fisher Thermo Scientific, Rockford Il.), the reaction is stopped by adding 100 microL/well 2NH₂SO₄ (VWR), and read on a SpectraMax microplate reader (Molecular Devices, Sunnyvale, Calif.) at OD450 nm using SOFTmax Pro software version 3.1.2. Data is analyzed using GraphPad Prism 4.01 software. Binding of LRP-1 peptides to TIMP-3 is expressed as binding EC50.
After incubation, the plate contents are discarded and 250 microL/well of blocking buffer (1% BSA, TBS [pH 7.5], 1 mM CaCl₂) is added to the plate which is incubated with shaking for 1 hour at room temperature. The plate is then washed three times with 200 microL/well with wash buffer 1 (TBS [pH 7.5], 1 mM CaCl₂) followed by the addition of 100 microL of 20 nM recombinant human TIMP-3. The plate is incubated at room temperature for 1 hour. The LRP-1 peptides are titrated as described previously, and 100 microL/well of the diluted LRP-1 peptide titration is added to the TIMP-3 coated plate and allowed to bind for 1.5 hour at room temperature with shaking. After incubation, the plate is washed and the ELISA performed substantially as described previously for the direct binding ELISA.

[10] = biological target: T3, MMP-13; test: cell-based or functional assay; remark: listed apart in the source
[11] = biological target: T2, recombinant TIMP-3 (human or mouse; …); test: binding ELISA, Assay 2

Row | Binder | EC50 [1] | EC50 [2] [nM] | % of the inhibitory activity of TIMP-3 + peptide compared to TIMP-3 alone, 16 nM [3] [%] | % of the inhibitory activity of TIMP-3 + peptide compared to TIMP-3 alone, 80 nM [3] [%] | % of the inhibitory activity of TIMP-3 + peptide compared to TIMP-3 alone, 2000 nM [3] [%] | Direct Inhibition of MMP13 (% decrease), 1000 nM [4] [%] | EC50 [5] [nM] | EC50 [6] [nM] | total signal (cps) [7] [cps] | total signal (cps) [8] [cps] | EC50 [9] [nM] | IC50 of TIMP-3 inhibition of MMP-13 (fluorogenic substrate) [10] [nM] | EC50 [11] [nM] | % of the inhibitory activity of TIMP-3 + peptide compared to TIMP-3 alone, 400 nM [3] [%]
1 | LRP-1 peptide LA3-5 (Tags implied (Ni-NTA, anti-HA detection), not described) not shown | 52.5 nM | 214 | 104 | 101 | 101 | 2 | 78 | 71 | 4000 | 9000 | 8 | – | – | –
2 | B1 | – | – | – | – | – | – | – | – | – | – | – | 0.5 to 1 | – | –
3 | LRP-1 peptide LA24-26 (The end 3574 is inferred from the end of LA26) not shown | 46 nM and 26 nM | 68 | 92 | 95 | – | 59 | 28 | 15 | 150000 | 120000 | 8 | – | 80 | 105
4 | LRP-1 peptide LA5-7 (Tags implied (Ni-NTA, anti-HA detection), not described) not shown | 210 nM | 350 | 101 | 99 | 68 | 2 | 94 | 74 | 2000 | 8000 | 9 | – | – | 93
